The text below walks through data of the nanobody polyreactivity screen of Harvey et al. (2022).

The nature of this data set: yeast display, Sf9 membrane polyspecificity reagent, FACS + sequencing; frameworks hold sequencing errors. An outline of the steps: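 After 36–48 hours of galactose induction, yeast (Saccharomyces cerevisiae BJ5465) displaying a synthetic nanobody library were stained at 4 °C for 1 hour with 10% biotinylated, detergent-solubilized Sf9 membrane reagent. Streptavidin microbeads enriched the stained cells before FACS sorting into low and high (top ~1%) gates on anti-HA and streptavidin fluorescence. Each clone's polyreactivity label reflects its gate of origin.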
On to “QVQLVESGGGLVQAGGSLSLSCAASGSILGYYAMGWYRQAPGKERELVAAISGRGGSTYYADSVKGRFTISRDNAKNPVYLQMNSLKPEDTAVYYCAKRSVWRGWGQGTQVTVSS”, for which the “polyreactivity (PSR sort gate)” value was “high polyreactivity”.

Consider “QVHLVESGGGLVQAGGSLRLSCAASGFIFSYYAMGWYRQAPGKERELVAAISWTGGSTYYADSVKGRFTISRDNAKNTVYLQMNSLKPEDTAVYYCNKYYRAWLLWDYGYWGQGTQVTVSS”, for which the “polyreactivity (PSR sort gate)” value is recorded as “high polyreactivity”.

As for “QVQLVESGGGLVQAGGTLPLSCAASGRTFNGNAMGWYRQAPGKERELVATINYSGGSTYYADSVKGRFTISRDNAKNTVYLQMNSLKPEDNAVYYCAAGGYPWYLRRGGFAGYDYWGQGTQLTVSS”, the “polyreactivity (PSR sort gate)” value is given as “low polyreactivity”. To “QDQLVESGGGLVQAGGSLRLSCAASGNTFTVNAMGWYRQAPGKERELVATINSTGGSTYYADSVKGRFTISRDNAKNTVYLQMNSLKPEDPAVYYAGSSNSFAFGGYDYWGQGTQVTVSS” belongs “low polyreactivity”; to “QVQRVESAGGLVQARGSLRLSCAASGRIFYYNAMGWYRQAPGKEREFVAAITSVGSTNYADSVKGLFTISRDNAKNTVYLQMNSLKPEDTAVYYCARASAWYVTLVGKYTKYDYWGQGTQVTVSS”, “low polyreactivity”.

In the case of “QVQLVESGGGLVQAGGSLRLSCAASGIIFGRNVMGWYRQAPGKERELVAAISWSGGSTYYADSVKGRFTISRDNAKNTVYLQMNSLKPEDTAVYYCAASYWWIPMEYWGQGTQVTVSS”, the “polyreactivity (PSR sort gate)” value is “high polyreactivity”. On to “QVQLVESGGGLVQAGGSLRLSCAASGRIFGSYVMGWYRQAPGKEMELVATISWSGGSTYYADSVKGRFTISRDNAKNTVYLQMNSLKPEDTAVYYCAAVSRYSHSPYHYDYWGQGTQVTVSS”, for which the “polyreactivity (PSR sort gate)” value is given as “high polyreactivity”.

On to “QVQLVESGGGLVQAGGSLRLSCAASGRIFAYYVMGWYRQAPAKERELVASISSGGGTYYADSVKGRFTISRDNAKNTVYLQMNSLKPEDTAVYYCAARWLRYVYPDGHLFWYDYWGQGTQVTVSS”, for which the “polyreactivity (PSR sort gate)” value is “high polyreactivity”. Regarding “QVQLVESGGGLVQAGGSLRLSCAASGSIFNLYAMGWYRQAPGKERELVAGIRWSGGRTYYADSVKGRFTISRDNAKNTVYLQMNSLKPEDTAVYYCNAVGYLSWWNDYDYWGQGTQVTVSS”, the “polyreactivity (PSR sort gate)” value is reported as “high polyreactivity”. The entry for “QGQLVESGGALVQAGGSLRLSCAPSGSTFGVYTMGWYRQAPGKERELVAAITKSGGSTYYADSVKGRFTISRDNAKNTVYLQMNSLKPEDTAVYYCNTDYGSYLYYRYGYWGQGTQVTVSS” is “low polyreactivity”; for “QVQLVESGGGLVQAGGSLRLSCAASGRNFSRYAMGWYRQAPGKERELVAAISRRGGSTYYADSVKGRFTISRDNAKNTVYLQMNSLKPEDTAVYFCAKYPSAYVDSDVTYDMDYWGQGTQVTVSS” it is “low polyreactivity”. On to “QVQLVESGGGLVQAGGSLRLSCAASGRIFTTYAMGWYRQAPGKERELVASISWRVGSTYYADTVKGRFTISRDNAKITVYLQMNSLKPEETAVYYCAAVGGNYHASRLRYYWGQVTQVTVSS”, for which the “polyreactivity (PSR sort gate)” value is “low polyreactivity”. The entry for “QVQLVESGGGLVQAGGSLRLSCAASGRIFFNYAMGWYRQAPGKVRELVASITWRGGNTYYADSVKGRFTISRDNAKNTVYLQMNSLKPEDTAVYYCAASIRRAGRTYYYWGQGTQVTVSS” is “high polyreactivity”. As for “QVQLQESGGGLVQAGGSLRLSCAASGSIFKVVDMGLYRQAPAKEREFVATIGEGGNTYYADSVKGRFTISRDNAKNTVYLQMHSLKPEDTAVYFYAVVLGTSYRYTYWGQGTQVTVSS”, the “polyreactivity (PSR sort gate)” value is recorded as “low polyreactivity”. With “QGQLVESGGGLVQAGGSLRLSCAASGRTFYTYAMGWYSPAAGKERELVAAMTRSGGRTYYADSVKVRFTISRDNAKNTVYLQMNSLKPEDTAVYYCGAKTFYWWADYDYWGQGTQVTVSS”, the “polyreactivity (PSR sort gate)” value is listed as “high polyreactivity”. To “KVQLVESCGGLVQAGGSLRLSCAASGFIISNYAMGWYRQAPGKERELVASISWGGGSTYYADSVKGSFTISRDNAKNTVYLQMNSLKPEDTAVYYCAAPSWDGIAYYGGYDYLGQGTQVTVSS” belongs “high polyreactivity”; to “QVQLVESGGGLVQAGGSLRLSCAASGGTFIMYAMGWYRQAPGKERELVASITWSGGRTYYADSVKGRFTISRDNSKNTVYLQMNSLKPEDTAVYYCNTPPSYIMDYWGQGTQVTVSS”, “low polyreactivity”; to “QVQLVESVGGLVQAGGSLRLSCAASGSNFSVYVMGWYRQAPGKERELVADISRSGGSTYYADSVKGRFTISRDNAKNTVYLQMNSLKPEDTAVYYCAASLYLSWLFEYWGQGTQVTVSS”, “low polyreactivity”. With “QVQLVESGGGLVQAGGSLRLSCAASGSIFWVYAMGWSRQAPGKERELVAAISNSGSTNYADSVKGRFTISRDNAKNTVYLQMNSLKPEDTAVYYCAKDSLVDHVGGYDYWGQGTQVTVSS”, the “polyreactivity (PSR sort gate)” value is on record as “low polyreactivity”. In the case of “QVQLVESGGGLVQAGGSLRLSCAASGSTFRWYTMGWYRQAPGKERELVAAINQSGSRTYYADSVKGRFTISRDNAKNTVYLQMNSLKPEDTAGYYCNAKSYKSPHTYYYWGQGTQVTVSS”, the “polyreactivity (PSR sort gate)” value is given as “high polyreactivity”.

As for “QVQLVESGGGLVQAGGSLRLSCAASGRIFLFYAMGWYRQAPGKERELVAAISIGSTDYADSVKGRFTISRDNAKNTVYLQMNSLKPEDTAVYYCAADFIITYDEYDYWGQGTQVTVSS”, the “polyreactivity (PSR sort gate)” value was “high polyreactivity”. The entry for “QVQRVESGGGLVQAGGSLRLSCAASGRTFFGYAMGWYRQAPGKERELVAAITSGGSTNYADSVKGRFTISRDNAKNTVYLQMNSLKPEDTAVYYCAASEDGSVSYESTYPEYDYWGQGTQVTVSS” is “low polyreactivity”. The entry for “QLQLVESGGGLVQAGGSLRLSCAASGSIFPDYAMGWYRPAPAKERELVAAITWRDDSTYYADSVKGRFTISRDNAKNTVYLQMNSLKPEDTAVYYCNASALDPLYAKDDYWGQGTQVTVSS” is “low polyreactivity”; for “QVQLVESGGGLVQAGGSLRLSCAASGRTFERYAMGWYRQAPGKERELVAAISSIGGSTYYADSVKGRFTISRDNAKNTVYLQMNSLKPEDTAVYYCADSVFYYASRYDYWGQGTKVTVSS” it is “low polyreactivity”. The entry for “QVQLVESGGVLVQAGGSLRLSCAASRGIFSGYAMGWYRQAPGKERELVASITRRGSSTYYADSVKGPFTISRDSAKNTVYLQMNSLNPEDTAVYYCHAVLRYHVLYRGYDYWGQGTQLTVSS” is “high polyreactivity”. On to “QVQLVESGGGLVQAGGSLRLSCAASGYIFDRNAMGWYRQAPGKERELVAAITKRGGITYYADSVKGRFTISRDNAKNTVYLQMNSLKPEDTAVFYWNALARSSRYDYWGQGTQVTVSS”, for which the “polyreactivity (PSR sort gate)” value is reported as “high polyreactivity”. For “QGQLVESGGGLVQARGSLRLSCAASGRIFMTYAMAWYIQAPGKERELVAAIRSPSGTTYYADSVKGRFTISRDNAKNTVYLQMNSLKPEDTAVYYCAAGGKYSSYYWGQGTQVTVSS”, the “polyreactivity (PSR sort gate)” value is given as “high polyreactivity”. For “QLQLVESGGVLVQAGGSLRLSCAASGTFYGYVMGWYRQAPGKERELGASINWSGGSTNYADSVKGRFTISRDNAKNTVFFQMNSRKPEDTAVYYCNADWGWGAYDYWGQGTQVTVSS”, the “polyreactivity (PSR sort gate)” value is reported as “low polyreactivity”.

For the sequence “QVQLVESGGGLVQAGGSLRLSCAASGSTLAVYAMGWYRQAPGKEREFVAAISWSGVSTYYADSVKGRFTISRDNAKNTVYLQMNSLKPEDTAVYYCAAKRVRALYGGSEGGYWGQGTQVTVSS”, the “polyreactivity (PSR sort gate)” value is “low polyreactivity”.

For “QVQLVESGGGLVQAGGSLRLSCAASGRIFAVNAMGWYRQAPGKERELVASIRWSGGSTYYADSVKGRFTISRDNAKNTVYLQMNSLKPEDTAVYYCAAVFYLWGQGTQVTVSS”, the “polyreactivity (PSR sort gate)” value is on record as “high polyreactivity”.
